Reference: the supplement of paper PMC6757056
± gives the standard deviation of the averaged measurements.

B1: library; a variant is named by its letters at N, in order (parent)
chain: GCUGUCACCGAGAAACUGUGAAGUAUAUCUUAAACCUGGGCACUUAAAAGAUAUAUGGAGUUAGUAGUGCAACCUGCUCGGUCUGAUGAGUCCNNNNNNGGACGAAACAGC

Columns and labels:
[1] = variants of: B1; experiment: FACS-Seq fitted mean relative fluorescence mCherry/BFP without ligand (log10 relative fluorescence); HEK293T; ligand: cyclic di-GMP (c-di-GMP-II aptamer); higher = higher reporter protein expression; conditions: ligand present: no
How it was run: (§1)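 Lentivirally transduced HEK293T libraries carried an mCherry reporter with the ribozyme switch and an EF1α-BFP marker. Transduced cells were enriched, then incubated with or without ligand for 48 h and sorted into 6 bins by mCherry/BFP. Genomic DNA from each bin was PCR-amplified, barcoded and sequenced on MiSeq. Fluorescence was the fitted normal mean of log10(mCherry/BFP) bin counts, scaled to five spiked-in control ribozymes.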

[2] = variants of: B1; experiment: normalized RNA/DNA level without ligand (relative to sTRSVctl = 100) (log10 (% of sTRSVctl)); HEK293T; ligand: cyclic di-GMP (c-di-GMP-II aptamer); higher = less ribozyme self-cleavage, higher mRNA level; conditions: reporter: mCherry (pCS4076), ligand present: no
How it was run: (§2)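 Library plasmids carrying ribozyme switches linked to mCherry, or to eGFP in some ligand experiments, were transfected into HEK293T at 4 µg per 6-well well, with any ligand added 1 h earlier. Seventy-two hours on, total RNA was extracted with EDTA and reverse-transcribed, amplified, barcoded and sequenced. RNA level was RNA over DNA reads normalized to a spiked-in non-cleaving sequence or to the top sequences, then scaled and log-transformed. The top set was 25 sequences, the transform was ×100 and log10, and sequences needed ≥100 DNA reads.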

[3] = variants of: B1; experiment: FACS-Seq fitted mean relative fluorescence mCherry/BFP with ligand (log10 relative fluorescence); HEK293T; ligand: cyclic di-GMP (c-di-GMP-II aptamer); ligand concentration (+) FACS-Seq: 1 mM; higher = higher reporter protein expression; conditions: ligand present: yes
How it was run: as §1

[4] = variants of: B1; experiment: normalized RNA/DNA level with ligand (relative to sTRSVctl = 100) (log10 (% of sTRSVctl)); HEK293T; ligand: cyclic di-GMP (c-di-GMP-II aptamer); ligand concentration (+) RNA-Seq: 1 mM; higher = less ribozyme self-cleavage, higher mRNA level; conditions: reporter: mCherry (pCS4076), ligand present: yes
How it was run: as §2

Variant	FACS-Seq fitted mean (log10) [1]	normalized RNA/DNA level without ligand (log10) [2]	FACS-Seq fitted mean (log10) [3]	normalized RNA/DNA level with ligand (log10) [4]
GCGCUA	-0.702 ± 0.086	1.65 ± 0.043	-0.433 ± 0.079	1.78 ± 0.17
GUGGUG	-0.455 ± 0.011	1.69 ± 0.036	-0.117 ± 0.042	1.83 ± 0.12
UCGAGC	-0.085 ± 0.098	1.736 ± 0.017	0.204 ± 0.013	1.84 ± 0.1
UCACGA	-0.203 ± 0.066	1.632 ± 0.0055	0.146 ± 0.017	1.81 ± 0.091
UUUCUA	-0.278 ± 0.011	1.75 ± 0.065	-0.016 ± 0.035	1.88 ± 0.11
AAGGGU	-0.547 ± 0.0094	1.53 ± 0.091	-0.278 ± 0.052	1.7 ± 0.061
UCCCGU	-0.0215 ± 0.15	1.72 ± 0.022	0.3 ± 0.015	1.83 ± 0.15
CCGGUG	-0.614 ± 0.039	1.27 ± 0.12	-0.397 ± 0.038	1.46 ± 0.11
AACUCC	0.000732 ± 0.015	1.815 ± 0.0033	0.225 ± 0.013	1.91 ± 0.097
GAAUAG	-0.662 ± 0.05	1.64 ± 0.018	-0.40149 ± 0.00037	1.78 ± 0.15
CAUAAA	-0.673 ± 0.064	1.23 ± 0.14	-0.363 ± 0.021	1.42 ± 0.066
GUAAAA	-0.251 ± 0.15	1.57 ± 0.024	0.00851 ± 0.01	1.73 ± 0.094
AGUGCC	0.324 ± 0.079	1.82 ± 0.11	0.275 ± 0.078	1.92 ± 0.15
AAAUGU	-0.132 ± 0.022	1.54 ± 0.03	0.136 ± 0.093	1.78 ± 0.09
GUCAAA	-0.258 ± 0.074	1.56 ± 0.036	0.0433 ± 0.047	1.73 ± 0.095
AUGACU	-1.21 ± 0.091	1.71 ± 0.0041	-0.93 ± 0.06	1.85 ± 0.11
CAACAA	-0.326 ± 0.062	1.37 ± 0.11	0.0147 ± 0.011	1.53 ± 0.1
AUGAAA	-0.678 ± 0.011	1.4 ± 0.14	-0.502 ± 0.026	1.64 ± 0.1

Variant	FACS-Seq fitted mean (log10) [1]	normalized RNA/DNA level without ligand (log10) [2]	FACS-Seq fitted mean (log10) [3]	normalized RNA/DNA level with ligand (log10) [4]
UAAAAG	-0.3384 ± 0.0033	1.685 ± 0.0079	-0.102 ± 0.2	1.84 ± 0.1
UAAGUG	0.0931 ± 0.039	1.61 ± 0.022	0.27 ± 0.01	1.78 ± 0.12
GUGCCG	-0.423 ± 0.023	1.828 ± 0.017	-0.15 ± 0.011	1.92 ± 0.11
UCAGUC	-0.277 ± 0.12	1.697 ± 0.0098	-0.0482 ± 0.1	1.85 ± 0.082
CGUAAA	-0.605 ± 0.042	1.23 ± 0.081	-0.386 ± 0.039	1.34 ± 0.11
UCACCA	0.0707 ± 0.26	1.694 ± 0.0047	0.366 ± 0.022	1.84 ± 0.14
GCGCAU	-0.0572 ± 0.14	1.66 ± 0.058	0.0686 ± 0.025	1.8 ± 0.11
AAGAGG	-0.546 ± 0.022	1.53 ± 0.052	-0.313 ± 0.016	1.68 ± 0.15
AGACGU	-1.017 ± 0.0037	1.573 ± 0.012	-0.759 ± 0.072	1.75 ± 0.13
CCCCUA	-0.244 ± 0.03	1.56 ± 0.054	0.111 ± 0.091	1.74 ± 0.093
ACGAGU	-0.508 ± 0.033	1.43 ± 0.14	-0.229 ± 0.13	1.7 ± 0.11
CAUAUA	-0.483 ± 0.05	1.3 ± 0.14	-0.237 ± 0.014	1.51 ± 0.097
GAACAG	-0.182 ± 0.12	1.753 ± 0.015	0.0981 ± 0.039	1.82 ± 0.094
CUAAAA	-0.3961 ± 0.0027	1.35 ± 0.057	-0.114 ± 0.1	1.61 ± 0.075
ACUGGU	-0.466 ± 0.02	1.52 ± 0.024	-0.166 ± 0.029	1.76 ± 0.079
AACGCU	-0.0259 ± 0.099	1.704 ± 0.013	0.296 ± 0.0034	1.86 ± 0.076
UGCAUG	-0.116 ± 0.0019	1.734 ± 0.0063	0.0785 ± 0.1	1.85 ± 0.13
GAGCAG	-0.832 ± 0.019	1.9 ± 0.058	-0.596 ± 0.16	1.95 ± 0.13
